Experiment [1] concerns the target T1, 小鼠CD150胞外段蛋白 (CD150m, hFc removed by TEV cleavage) (mouse, UniProt Q9QUM4 25-242).
T1 construct: The monomeric protein was used; In the BLI assay the protein was biotinylated (biotin-CD150); also called CD150蛋白; biotin-CD150
T1 sequence: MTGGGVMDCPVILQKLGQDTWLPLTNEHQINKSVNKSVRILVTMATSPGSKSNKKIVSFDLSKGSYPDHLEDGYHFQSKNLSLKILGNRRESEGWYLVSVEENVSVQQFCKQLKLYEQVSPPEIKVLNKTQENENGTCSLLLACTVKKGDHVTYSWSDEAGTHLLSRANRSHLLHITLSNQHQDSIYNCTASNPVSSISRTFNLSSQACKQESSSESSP
Briefly: indirect ELISA, CD150 protein coated at 0.25 μg/ml, HRP anti-rat IgG detection. (ELISA stands for enzyme-linked immunosorbent assay.)

Experiment [2] deals with T2, 小鼠CD150 on mouse spleen cells (mouse, UniProt Q9QUM4 25-343).
T2 construct: This is endogenous CD150 on mouse splenocytes in the flow cytometry assay
T2 sequence: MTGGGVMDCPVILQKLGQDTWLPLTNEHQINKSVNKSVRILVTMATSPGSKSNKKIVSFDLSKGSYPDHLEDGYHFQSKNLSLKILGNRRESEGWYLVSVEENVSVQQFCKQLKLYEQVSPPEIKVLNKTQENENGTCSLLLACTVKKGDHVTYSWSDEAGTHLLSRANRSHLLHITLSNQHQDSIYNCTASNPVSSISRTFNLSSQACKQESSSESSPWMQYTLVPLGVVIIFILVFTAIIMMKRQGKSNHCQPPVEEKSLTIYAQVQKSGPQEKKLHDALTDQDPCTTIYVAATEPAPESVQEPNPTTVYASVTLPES
Put plainly: flow cytometry on mouse spleen cells. On the technique in general: In flow cytometry, cells or beads pass a laser one at a time.

This note sets out measurements from patent CN116769729A (UNIV SCIENCE & TECHNOLOGY CHINA, dated 2023).

B1: 抗CD150单克隆抗体 (produced by rat hybridoma mCD150-mAb-1, CGMCC No.45539) (antibody, V domains shown)
VH: QIQLVQSGPELKKPGESVKISCKASGYTFTDYAMNWVKQAPGNGLKWMGYINTQTGKPTYADDFKQRFVFSLETSASTAYLQINNLNIEDTATYFCTRYNSGNWFAYWGQGTLVTVSS
VL: DIQMTQTPSSMPASLGERVTISCRAGQGISNYLNWYQQKPDGAIKPLIYYTSNLQSGVPSRFSGSGSGTDYSLTISSLEPEDFAMYYCQQYDSSPYTFGAGTKLELK
notes: also called CD150的单抗; 抗CD150抗体
Usually EC50 stands for the concentration that produces a half-maximal response. Read a high EC50 as lower potency in that assay. On to B1, for which, in experiment [1], it took 1.13 µg/mL to reach a half-maximal effect (EC50). The binding result in experiment [2] is “binds”.
